Test results taken from patent publication US20120238496A1.

Molecular target: FGF-21 receptor
Test: cell-based or functional assay

- Glucose uptake CPM, 3T3-L1 fat cells, protein at 0 nM (baseline): 1880 CPM
- Glucose uptake CPM, 3T3-L1 fat cells, protein at 0.03 nM: 1800 CPM
- Glucose uptake CPM, 3T3-L1 fat cells, protein at 0.15 nM: 2110 CPM
- Glucose uptake CPM, 3T3-L1 fat cells, protein at 0.8 nM: 2200 CPM
- Glucose uptake CPM, 3T3-L1 fat cells, protein at 4 nM: 3300 CPM
- Glucose uptake CPM, 3T3-L1 fat cells, protein at 20 nM: 5130 CPM
- Glucose uptake CPM, 3T3-L1 fat cells, protein at 100 nM: 5320 CPM
Substance: recombinant human FGF-21 (from UniProt Q9NSA1 29-209) (ligand)
